Experimental data as given in patent US11932908B2, “Compositions and methods for diagnosis and treatment of epilepsy” (THE REGENTS OF THE UNIVERSITY OF CALIFORNIA, priority 2004, dated 2024).
Entries after “also recorded” stand apart in the source; their conditions may differ.

Experiments:
[1] = system: mouse hippocampal primary culture neurons; conditions: 24, 36 and 48 hours after transfection; mutants compared to wild-type EFHC1
Protocol: Mouse hippocampal neurons primary culture. Hippocampal neurons were isolated from embryonic day 16 mice and plated at 1-2×10^5 cells per well in 24 well plate containing glass coverslips coated with poly-1-lysine and grown in serum-free NEUROBASAL™ media supplemented with B27, 0.5 mM L-glutamine (Invitrogen).
Transfection and immunostaining of mouse hippocampal neurons. […] Cultures were fixed with 4% paraformaldehyde in PBS 16 and 48 hours after transfection, permeabilized with 0.3% Triton X-100, blocked in 3% normal goat serum in PBS, and treated with mouse monoclonal anti-MAP-2 antibody (1:500; Sigma) and Alexa fluor 594 goat anti-mouse IgG antibody (1:1000; Molecular Probes).
TUNEL assay. […] Forty-eight hours after transfection, neuronal apoptosis was detected using DeadEndTM Fluorometric TUNEL System (Promega). Nuclei were visualized with Hoescht 33342 (Molecular Probes). These cells were also stained with anti-Myc antibody (1:200; Cell Signaling) and Alexa fluor 594 goat anti-rabbit IgG antibody (1:1000). All experiments were carried out in duplicate wells and at least repeated three times. Neuron cells were observed on a confocal microscope (OLYMPUS FLUOVIEW) following 48 hours post transfection.
Cell death analyses with EFHC1 mutants. […] Surviving cell numbers were scored by counting GFP fluorescent-positive cells that attached to dishes. At each counting, detached cells (dead cells) were carefully removed by changing culture medium. Morphologies of cells (cell shape, length and number of neurites, shrinkage, etc.) were not considered for the counting. Surviving cell numbers were scored at 24, 36, and 48 hours after transfection. Analyses were repeated twice by using two independently prepared expression construct DNAs. In total, neurons in seven wells of 24 well plates were counted for each transfection and time point. Experiments were performed in a blinded fashion.

PQ type VDCC (Cav2.1) = target: T1, PQ type VDCC (Cav2.1) (Oryctolagus cuniculus, UniProt P27884); assay: Patch-clamp analyses of HEK cell line with P/Q type VDCCs and wild type EFHC1 or mutant constructs; assay type: cell-based
T1 construct: expressed in transfected cells; host or cells: HEK cell line
T1 sequence (P27884 whole entry): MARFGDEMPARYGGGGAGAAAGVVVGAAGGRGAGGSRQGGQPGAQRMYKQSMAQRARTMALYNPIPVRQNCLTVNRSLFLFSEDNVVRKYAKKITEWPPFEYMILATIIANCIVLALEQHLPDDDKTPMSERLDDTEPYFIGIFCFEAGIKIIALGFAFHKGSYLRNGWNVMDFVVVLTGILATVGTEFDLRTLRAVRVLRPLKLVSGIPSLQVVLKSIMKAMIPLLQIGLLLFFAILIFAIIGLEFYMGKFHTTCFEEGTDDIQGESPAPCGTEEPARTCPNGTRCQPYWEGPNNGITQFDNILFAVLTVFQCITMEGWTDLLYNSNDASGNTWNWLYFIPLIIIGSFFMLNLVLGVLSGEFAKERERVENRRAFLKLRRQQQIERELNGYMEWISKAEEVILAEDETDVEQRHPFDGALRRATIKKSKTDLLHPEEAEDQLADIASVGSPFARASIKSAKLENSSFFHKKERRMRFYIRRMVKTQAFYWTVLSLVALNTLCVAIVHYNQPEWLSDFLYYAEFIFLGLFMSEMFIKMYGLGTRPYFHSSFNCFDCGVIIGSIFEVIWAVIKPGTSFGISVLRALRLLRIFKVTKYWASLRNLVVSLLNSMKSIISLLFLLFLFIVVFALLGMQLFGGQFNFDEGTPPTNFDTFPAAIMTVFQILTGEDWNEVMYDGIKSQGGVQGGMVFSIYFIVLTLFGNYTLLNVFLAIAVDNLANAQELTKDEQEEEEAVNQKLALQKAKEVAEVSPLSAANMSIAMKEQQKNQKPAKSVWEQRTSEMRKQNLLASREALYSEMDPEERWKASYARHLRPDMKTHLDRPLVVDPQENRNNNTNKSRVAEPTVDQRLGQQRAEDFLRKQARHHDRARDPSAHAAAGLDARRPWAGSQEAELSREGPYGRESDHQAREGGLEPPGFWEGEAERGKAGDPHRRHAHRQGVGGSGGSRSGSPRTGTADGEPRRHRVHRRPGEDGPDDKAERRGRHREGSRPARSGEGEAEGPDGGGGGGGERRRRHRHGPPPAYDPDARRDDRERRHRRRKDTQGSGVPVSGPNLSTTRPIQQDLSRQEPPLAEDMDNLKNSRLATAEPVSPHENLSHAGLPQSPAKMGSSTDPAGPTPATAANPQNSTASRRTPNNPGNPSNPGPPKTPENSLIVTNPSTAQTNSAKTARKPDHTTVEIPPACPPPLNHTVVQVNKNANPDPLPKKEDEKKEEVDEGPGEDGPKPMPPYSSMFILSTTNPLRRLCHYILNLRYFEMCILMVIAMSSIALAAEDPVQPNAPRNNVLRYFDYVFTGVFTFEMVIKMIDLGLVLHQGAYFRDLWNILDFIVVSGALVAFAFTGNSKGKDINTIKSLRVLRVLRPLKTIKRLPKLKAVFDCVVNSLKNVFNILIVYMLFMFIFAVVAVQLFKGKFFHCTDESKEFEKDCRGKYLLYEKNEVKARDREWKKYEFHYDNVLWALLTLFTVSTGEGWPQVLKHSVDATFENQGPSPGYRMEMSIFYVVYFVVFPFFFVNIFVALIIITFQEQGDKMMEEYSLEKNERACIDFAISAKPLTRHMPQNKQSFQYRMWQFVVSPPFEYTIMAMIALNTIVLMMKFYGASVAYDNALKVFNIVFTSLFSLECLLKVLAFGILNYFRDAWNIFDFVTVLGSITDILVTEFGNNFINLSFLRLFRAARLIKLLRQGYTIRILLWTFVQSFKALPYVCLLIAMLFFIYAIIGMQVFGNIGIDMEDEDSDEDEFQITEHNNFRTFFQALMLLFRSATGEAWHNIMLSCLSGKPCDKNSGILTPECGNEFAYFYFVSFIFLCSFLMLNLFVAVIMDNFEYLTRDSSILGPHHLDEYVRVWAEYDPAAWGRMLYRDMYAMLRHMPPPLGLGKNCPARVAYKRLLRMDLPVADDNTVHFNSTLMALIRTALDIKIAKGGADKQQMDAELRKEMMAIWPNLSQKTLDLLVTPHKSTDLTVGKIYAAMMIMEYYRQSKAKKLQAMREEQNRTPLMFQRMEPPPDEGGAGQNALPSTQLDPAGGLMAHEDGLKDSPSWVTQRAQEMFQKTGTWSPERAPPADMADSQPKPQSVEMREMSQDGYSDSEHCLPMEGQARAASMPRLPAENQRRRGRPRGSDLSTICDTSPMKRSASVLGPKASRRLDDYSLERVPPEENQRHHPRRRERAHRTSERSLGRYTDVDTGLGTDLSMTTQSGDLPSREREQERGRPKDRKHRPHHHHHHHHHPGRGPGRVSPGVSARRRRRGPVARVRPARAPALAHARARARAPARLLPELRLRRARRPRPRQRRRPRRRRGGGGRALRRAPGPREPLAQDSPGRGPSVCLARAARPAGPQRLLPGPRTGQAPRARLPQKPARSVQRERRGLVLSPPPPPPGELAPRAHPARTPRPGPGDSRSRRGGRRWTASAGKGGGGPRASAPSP
T1 sequence (P13806 27-1106 partner): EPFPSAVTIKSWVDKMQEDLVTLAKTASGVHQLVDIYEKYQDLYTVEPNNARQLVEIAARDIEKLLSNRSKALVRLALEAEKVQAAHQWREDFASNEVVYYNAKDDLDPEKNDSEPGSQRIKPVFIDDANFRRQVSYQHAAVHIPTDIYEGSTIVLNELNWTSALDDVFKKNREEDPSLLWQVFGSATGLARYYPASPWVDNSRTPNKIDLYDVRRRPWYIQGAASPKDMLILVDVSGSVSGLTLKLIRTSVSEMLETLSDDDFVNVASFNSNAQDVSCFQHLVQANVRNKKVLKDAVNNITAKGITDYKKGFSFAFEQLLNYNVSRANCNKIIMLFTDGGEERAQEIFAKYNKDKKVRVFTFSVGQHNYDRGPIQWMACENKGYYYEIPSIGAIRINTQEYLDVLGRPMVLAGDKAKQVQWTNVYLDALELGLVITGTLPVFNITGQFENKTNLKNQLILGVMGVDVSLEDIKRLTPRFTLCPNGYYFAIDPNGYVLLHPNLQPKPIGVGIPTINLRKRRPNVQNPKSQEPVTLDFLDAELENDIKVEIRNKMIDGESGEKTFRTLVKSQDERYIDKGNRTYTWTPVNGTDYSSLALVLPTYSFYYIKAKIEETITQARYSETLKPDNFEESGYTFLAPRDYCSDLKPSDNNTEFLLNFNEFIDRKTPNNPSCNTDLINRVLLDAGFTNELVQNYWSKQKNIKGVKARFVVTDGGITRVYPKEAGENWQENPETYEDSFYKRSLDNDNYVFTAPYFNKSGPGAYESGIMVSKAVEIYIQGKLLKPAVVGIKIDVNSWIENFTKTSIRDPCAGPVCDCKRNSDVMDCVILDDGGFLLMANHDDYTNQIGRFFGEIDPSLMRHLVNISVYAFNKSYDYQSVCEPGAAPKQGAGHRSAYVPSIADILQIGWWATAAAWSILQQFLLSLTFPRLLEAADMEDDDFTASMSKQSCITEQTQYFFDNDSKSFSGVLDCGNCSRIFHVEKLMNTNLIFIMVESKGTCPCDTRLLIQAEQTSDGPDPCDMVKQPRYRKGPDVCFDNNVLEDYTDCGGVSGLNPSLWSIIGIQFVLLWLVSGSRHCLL
T1 sequence (P19517 whole entry partner): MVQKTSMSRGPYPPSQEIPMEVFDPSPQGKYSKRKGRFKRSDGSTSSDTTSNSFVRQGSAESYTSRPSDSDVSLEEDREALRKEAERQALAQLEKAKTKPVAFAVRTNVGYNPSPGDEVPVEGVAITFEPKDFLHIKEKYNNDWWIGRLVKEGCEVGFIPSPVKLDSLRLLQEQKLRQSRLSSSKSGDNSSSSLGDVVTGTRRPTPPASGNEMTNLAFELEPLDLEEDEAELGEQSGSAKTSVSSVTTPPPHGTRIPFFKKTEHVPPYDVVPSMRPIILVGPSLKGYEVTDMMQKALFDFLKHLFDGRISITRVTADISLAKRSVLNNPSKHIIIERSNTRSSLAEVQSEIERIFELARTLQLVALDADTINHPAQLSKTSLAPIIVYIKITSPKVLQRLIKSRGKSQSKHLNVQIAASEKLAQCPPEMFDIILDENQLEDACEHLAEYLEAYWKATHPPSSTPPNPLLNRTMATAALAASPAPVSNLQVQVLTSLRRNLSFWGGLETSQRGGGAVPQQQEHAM

B1: P77T/R221H: EFHC1 protein with the double mutation P77T and R221H (protein)
chain: MVSNPVHGLPFLPGTSFKDSTKTAFHRSQTLSYRNGYAIVRRPTVGIGGDRLQFNQLSQAELDELASKAPVLTYGQTKQAPPADFIPAHVAFDKKVLKFDAYFQEDVPMSTEEQYRIRQVNIYYYLEDDSMSVIEPVVENSGILQGKLIKRQRLAKNDRGDHYHWKDLNRGINITIYGKTFRVVDCDQFTQVFLESQGIELNPPEKMALDPYTELRKQPLHKYVTPSDFDQLKQFLTFDKQVLRFYAIWDDTDSMYGECRTYIIHYYLMDDTVEIREVHERNDGRDPFPLLMNRQRVPKVLVENAKNFPQCVLEISDQEVLEWYTAKDFIVGKSLTILGRTFFIYDCDPFTRRYYKEKFGITDLPRIDVSKREPPPVKQELPPYNGFGLVEDSAQNCFTLIPKAPKKDVIKMLVNDNKVLRYLAVLESPIPEDKDRRFVFSYFLATDMISIFEPPVRNSGIIGGKYLGRTKVVKPYSTVDNPVYYGPSDFFIGAVIEVFGHRFIILDTDEYVLKYMESNAAQYSPEALASIQNHVRKREAPAPEAESKQTEKDPGVQELEALIDTIQKQLKDHSCKDNIREAFQIYDKEASGYVDRDMFFKICESLNVPVDDSLVKELIRMCSHGEGKINYYNFVRAFSN
cell-death effect (GFP-positive surviving cell numbers) [1]: significantly reduced; also recorded: significantly reversed

B2: P77T: EFHC1 protein with JME missense mutation P77T (Pro77Thr) (protein)
chain: MVSNPVHGLPFLPGTSFKDSTKTAFHRSQTLSYRNGYAIVRRPTVGIGGDRLQFNQLSQAELDELASKAPVLTYGQTKQAPPADFIPAHVAFDKKVLKFDAYFQEDVPMSTEEQYRIRQVNIYYYLEDDSMSVIEPVVENSGILQGKLIKRQRLAKNDRGDHYHWKDLNRGINITIYGKTFRVVDCDQFTQVFLESQGIELNPPEKMALDPYTELRKQPLRKYVTPSDFDQLKQFLTFDKQVLRFYAIWDDTDSMYGECRTYIIHYYLMDDTVEIREVHERNDGRDPFPLLMNRQRVPKVLVENAKNFPQCVLEISDQEVLEWYTAKDFIVGKSLTILGRTFFIYDCDPFTRRYYKEKFGITDLPRIDVSKREPPPVKQELPPYNGFGLVEDSAQNCFTLIPKAPKKDVIKMLVNDNKVLRYLAVLESPIPEDKDRRFVFSYFLATDMISIFEPPVRNSGIIGGKYLGRTKVVKPYSTVDNPVYYGPSDFFIGAVIEVFGHRFIILDTDEYVLKYMESNAAQYSPEALASIQNHVRKREAPAPEAESKQTEKDPGVQELEALIDTIQKQLKDHSCKDNIREAFQIYDKEASGYVDRDMFFKICESLNVPVDDSLVKELIRMCSHGEGKINYYNFVRAFSN
cell-death effect (GFP-positive surviving cell numbers) [1]: significantly reversed | Ca2+ current density of P/Q-type VDCC (Cav2.1) (PQ type VDCC (Cav2.1); cells co-transfected with P/Q-type VDCC and EFHC1 constructs): moderately increased | Activation V0.5 (mV) (PQ type VDCC (Cav2.1); half-maximal voltage of activation, mean ± SEM): 23.0 ± 3.2 mV | Inactivation V0.5 (mV) (PQ type VDCC (Cav2.1); half-maximal voltage of inactivation, mean ± SEM): −15.8 ± 1.4 mV | inactivation speed of P/Q type VDCC (decelerating effect on calcium inactivation) (PQ type VDCC (Cav2.1); patch-clamp): abolished the decelerating effect | Activation k (mV) (PQ type VDCC (Cav2.1); slope factor, mean ± SEM): 8.87 ± 1.67 mV | Inactivation K (mV) (PQ type VDCC (Cav2.1); slope factor, mean ± SEM): 6.59 ± 0.44 mV

B3: R182H: EFHC1 protein with coding polymorphism R182H (Arg182His) (protein)
chain: MVSNPVHGLPFLPGTSFKDSTKTAFHRSQTLSYRNGYAIVRRPTVGIGGDRLQFNQLSQAELDELASKAPVLTYGQPKQAPPADFIPAHVAFDKKVLKFDAYFQEDVPMSTEEQYRIRQVNIYYYLEDDSMSVIEPVVENSGILQGKLIKRQRLAKNDRGDHYHWKDLNRGINITIYGKTFHVVDCDQFTQVFLESQGIELNPPEKMALDPYTELRKQPLRKYVTPSDFDQLKQFLTFDKQVLRFYAIWDDTDSMYGECRTYIIHYYLMDDTVEIREVHERNDGRDPFPLLMNRQRVPKVLVENAKNFPQCVLEISDQEVLEWYTAKDFIVGKSLTILGRTFFIYDCDPFTRRYYKEKFGITDLPRIDVSKREPPPVKQELPPYNGFGLVEDSAQNCFTLIPKAPKKDVIKMLVNDNKVLRYLAVLESPIPEDKDRRFVFSYFLATDMISIFEPPVRNSGIIGGKYLGRTKVVKPYSTVDNPVYYGPSDFFIGAVIEVFGHRFIILDTDEYVLKYMESNAAQYSPEALASIQNHVRKREAPAPEAESKQTEKDPGVQELEALIDTIQKQLKDHSCKDNIREAFQIYDKEASGYVDRDMFFKICESLNVPVDDSLVKELIRMCSHGEGKINYYNFVRAFSN
cell-death effect (GFP-positive surviving cell numbers) [1]: largely maintained

B4: 1619L: EFHC1 protein with coding polymorphism I619L (protein, UniProt Q5JVL4 1-640, looked up, variant I619L)
EF-hand domain-containing …: MVSNPVHGLPFLPGTSFKDSTKTAFHRSQTLSYRNGYAIVRRPTVGIGGDRLQFNQLSQAELDELASKAPVLTYGQPKQAPPADFIPAHVAFDKKVLKFDAYFQEDVPMSTEEQYRIRQVNIYYYLEDDSMSVIEPVVENSGILQGKLIKRQRLAKNDRGDHYHWKDLNRGINITIYGKTFRVVDCDQFTQVFLESQGIELNPPEKMALDPYTELRKQPLRKYVTPSDFDQLKQFLTFDKQVLRFYAIWDDTDSMYGECRTYIIHYYLMDDTVEIREVHERNDGRDPFPLLMNRQRVPKVLVENAKNFPQCVLEISDQEVLEWYTAKDFIVGKSLTILGRTFFIYDCDPFTRRYYKEKFGITDLPRIDVSKREPPPVKQELPPYNGFGLVEDSAQNCFALIPKAPKKDVIKMLVNDNKVLRYLAVLESPIPEDKDRRFVFSYFLATDMISIFEPPVRNSGIIGGKYLGRTKVVKPYSTVDNPVYYGPSDFFIGAVIEVFGHRFIILDTDEYVLKYMESNAAQYSPEALASIQNHVRKREAPAPEAESKQTEKDPGVQELEALIDTIQKQLKDHSCKDNIREAFQIYDKEASGYVDRDMFFKICESLNVPVDDSLVKELLRMCSHGEGKINYYNFVRAFSN
cell-death effect (GFP-positive surviving cell numbers) [1]: largely maintained

B5: R159W: EFHC1 protein with coding polymorphism R159W (Arg159Trp) (protein)
chain: MVSNPVHGLPFLPGTSFKDSTKTAFHRSQTLSYRNGYAIVRRPTVGIGGDRLQFNQLSQAELDELASKAPVLTYGQPKQAPPADFIPAHVAFDKKVLKFDAYFQEDVPMSTEEQYRIRQVNIYYYLEDDSMSVIEPVVENSGILQGKLIKRQRLAKNDWGDHYHWKDLNRGINITIYGKTFRVVDCDQFTQVFLESQGIELNPPEKMALDPYTELRKQPLRKYVTPSDFDQLKQFLTFDKQVLRFYAIWDDTDSMYGECRTYIIHYYLMDDTVEIREVHERNDGRDPFPLLMNRQRVPKVLVENAKNFPQCVLEISDQEVLEWYTAKDFIVGKSLTILGRTFFIYDCDPFTRRYYKEKFGITDLPRIDVSKREPPPVKQELPPYNGFGLVEDSAQNCFTLIPKAPKKDVIKMLVNDNKVLRYLAVLESPIPEDKDRRFVFSYFLATDMISIFEPPVRNSGIIGGKYLGRTKVVKPYSTVDNPVYYGPSDFFIGAVIEVFGHRFIILDTDEYVLKYMESNAAQYSPEALASIQNHVRKREAPAPEAESKQTEKDPGVQELEALIDTIQKQLKDHSCKDNIREAFQIYDKEASGYVDRDMFFKICESLNVPVDDSLVKELIRMCSHGEGKINYYNFVRAFSN
cell-death effect (GFP-positive surviving cell numbers) [1]: largely maintained
